Here are results for two molecules from paper PMC11100570 (Science Advances, 2024).

For assay [1], the target named is Munc13-1 MUN domain (residues 933 to 1407, EF, 1453 to 1531) (rat, UniProt Q62768 933-1407; Q62768 1453-1531). The experiment in a line: ITC. (Isothermal titration calorimetry measures the heat released or taken up as one component is titrated into another.)
Assay [2] has as its target MUN W1165A (rat, UniProt Q62768 933-1407; Q62768 1453-1531, W1165A). The experiment in a line: pull-down.

B1: GST-Doc2B 13 to 80 (Mid-L) (domain or fragment, mouse, UniProt P70169 13-80, looked up)
chain: SIQEHMAIDVCPGPIRPIKQISDYFPRFPRGLPPTAAPRAPAPPDAPARSPAASASPRSPSDGARDDD
For B1, in assay [1], the “fold change of the dissociation constant against Doc2B (13 to 37)” value came to 10 fold.

B2: GST-Doc2B FL (full-length Doc2B, residues 1 to 412) (natural protein, mouse, UniProt P70169 1-412, looked up)
chain: MTLRRRGEKATISIQEHMAIDVCPGPIRPIKQISDYFPRFPRGLPPTAAPRAPAPPDAPARSPAASASPRSPSDGARDDDEDVDQLFGAYGASPGPSPGPSPARPPAKPPEDEPDVDGYESDDCTALGTLDFSLLYDQENNALHCTISKAKGLKPMDHNGLADPYVKLHLLPGASKANKLRTKTLRNTLNPSWNETLTYYGITDEDMVRKTLRISVCDEDKFRHNEFIGETRVPLKKLKPNHTKTFSICLEKQLPVDKAEDKSLEERGRILISLKYSSQKQGLLVGIVRCAHLAAMDANGYSDPYVKTYLKPDVDKKSKHKTAVKKKTLNPEFNEEFCYEIKHGDLAKKTLEVTVWDYDIGKSNDFIGGVVLGINAKGERLKHWFDCLKNKDKRIERWHTLTNELPGAVLSD
Consider B2, for which, in assay [1], the “fold change of the dissociation constant against Doc2B (13 to 37)” value was found to be 10 fold and the “stoichiometry N” value was found to be 1. Besides, the binding result in assay [2] is “binds”.

In general, stoichiometry N refers to the number of molecules, sites or subunits per partner or assembly.
